The labels stand for the following.
T1: human IL-2Rβγ receptor on primary human T-cells and NK-cells (PBMCs) (human, UniProt P14784 27-551; P31785 23-369)
T1 construct: Endogenous receptor on primary cells; also called dimeric IL-2Rβγ receptor complex
T1 sequence 1: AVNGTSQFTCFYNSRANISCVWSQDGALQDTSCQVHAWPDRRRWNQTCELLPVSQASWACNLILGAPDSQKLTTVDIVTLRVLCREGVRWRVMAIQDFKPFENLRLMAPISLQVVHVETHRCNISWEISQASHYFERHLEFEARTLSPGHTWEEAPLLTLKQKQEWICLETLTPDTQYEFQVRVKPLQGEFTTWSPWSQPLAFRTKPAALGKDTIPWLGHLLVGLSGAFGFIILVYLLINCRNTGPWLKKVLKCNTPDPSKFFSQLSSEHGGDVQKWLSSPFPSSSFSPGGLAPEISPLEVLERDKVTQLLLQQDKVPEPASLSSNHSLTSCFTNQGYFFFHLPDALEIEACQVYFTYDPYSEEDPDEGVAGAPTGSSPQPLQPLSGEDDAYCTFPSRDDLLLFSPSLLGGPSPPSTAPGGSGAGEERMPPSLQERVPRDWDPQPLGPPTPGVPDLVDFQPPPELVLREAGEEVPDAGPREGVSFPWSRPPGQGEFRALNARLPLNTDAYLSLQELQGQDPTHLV
T1 sequence 2: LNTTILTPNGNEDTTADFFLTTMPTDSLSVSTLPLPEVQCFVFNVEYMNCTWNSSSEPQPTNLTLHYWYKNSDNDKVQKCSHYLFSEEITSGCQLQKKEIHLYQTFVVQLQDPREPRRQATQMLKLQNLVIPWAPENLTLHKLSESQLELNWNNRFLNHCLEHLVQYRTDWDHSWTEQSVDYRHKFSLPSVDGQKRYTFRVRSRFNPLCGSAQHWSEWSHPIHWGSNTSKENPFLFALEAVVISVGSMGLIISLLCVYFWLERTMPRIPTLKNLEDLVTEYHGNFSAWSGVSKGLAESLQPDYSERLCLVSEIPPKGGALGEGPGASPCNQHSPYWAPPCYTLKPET

T2: IL-9R (R&D Systems) (UniProt Q01113 41-270, limits assumed)
T2 sequence (looked up): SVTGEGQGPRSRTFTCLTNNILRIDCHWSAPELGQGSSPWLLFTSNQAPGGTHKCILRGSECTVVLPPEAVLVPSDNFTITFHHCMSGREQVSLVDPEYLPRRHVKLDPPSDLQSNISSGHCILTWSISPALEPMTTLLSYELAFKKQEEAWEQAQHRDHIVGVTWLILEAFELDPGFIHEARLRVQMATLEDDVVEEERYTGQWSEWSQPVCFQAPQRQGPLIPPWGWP

B1: BsAb-2 (IL2RB_F09G**IL2RG_F16B) (bispecific antibody, human IgG4, V domains shown)
V domain 1: QVQLQESGPGLVKSSETLSLTCTVSGGSISSSDWWSWVRQPPGKGLEWIGEIDHSGSTNYNPSLMSRVTISVDKSKNQFSLKLSSVTAADTAVYFCARGSWELTDAFDIRGQGTLVTVSS
V domain 2: QVQLVESGGGLVKPGGSLRLSCAASGFTFSDYYMSWIRQAPGKGLEWVSYISSSGSTIYYADSVKGRFTISRDNAKNSLYLQMNSLRAEDTAVYYCARGDAVSITGDYRGQGTLVTVSS
notes: Heavy chain-only bispecific on silenced, stabilised human IgG4 Fc, knobs-into-holes, no light chains; not shown: C-terminal His-tag on the knob chain
B2: BsAb-6 (IL2RB_F18E**IL2RG_F16A) (bispecific antibody, human IgG4, V domains shown)
V domain 1: QVQLVESGGGVVQPGRSLRLSCAASGFTFSSYGMHWVRQAPGKEREWVAVISYDGSNKYYTDSVKGRFTISRDNSKNTLYLEMNSLRAEDTAVYYCARDLDYDVLTGDPVGGFDIWGQGTLVTVSS
V domain 2: B1 V domain 2 with Y50S, S56D, K65Q, I70L, K76E, Y80F
notes: as for B1
B3: BsAb-3 (IL2RB_F09G**IL2RG_F16C) (bispecific antibody, human IgG4, V domains shown)
V domain 1: B1 V domain 1
V domain 2: B1 V domain 2 with S30N, Y50H, I70V, K76N, N84H
notes: as for B1
B4: BsAb-4 (IL2RB_F09G**IL2RG_F18A) (bispecific antibody, human IgG4, V domains shown)
V domain 1: B1 V domain 1
V domain 2: QVQLVESGGDLVKPGGSLRLSCAASGFTFSDYYMSWLRQAPGKELEWVSHISSSGTTTYYADSVEGRFTITRDNAKNSLYLQMNSLRAEDTAVYYCARGAAVAPGFDSRGQGTLVTVSS
notes: as for B1
B5: BsAb-1 (IL2RB_F09C**IL2RG_F16A) (bispecific antibody, human IgG4, V domains shown)
V domain 1: B1 V domain 1 with S14P, E16G, T23A, A97G, T104S
V domain 2: B1 V domain 2 with Y50S, S56D, K65Q, I70L, K76E, Y80F
notes: as for B1
B6: BsAb-5 (IL2RB_F09K**IL2RG_F16B) (bispecific antibody, human IgG4, V domains shown)
V domain 1: B1 V domain 1 with G8S, S14P, D33N, D53S, M65K, K82R, A97G
V domain 2: B1 V domain 2
notes: as for B1

Residue numbers refer to the chain shown, from its start.

By EC50 (read off the curve) is commonly meant the concentration that produces a half-maximal response. Read a high EC50 (read off the curve) as a less potent agent.

The first experiment has as its target T1, human IL-2Rβγ receptor on primary human …. As to the kind of experiment: flow cytometry cell binding on human CD8+ T-cells (PBMC), gMFI as fold over secondary antibody only. The procedure: All washes and dilutions of cells, antibodies, and reagents were performed using flow buffer (1X PBS, 1% BSA, 0.1% NaN3, pH 7.4). Staining was performed in a round-bottom 96-well plate (Corning) seeded at 100,000 cells/well, and all incubations were performed at 4° C. or on ice. […] The cells were washed twice with 200 μL flow buffer. The cells were then incubated for 30 minutes with detection antibody (Goat F(ab′)2 Anti-Human IgG-PE, Southern Biotech) at 0.625 μg/mL in flow buffer. Following 2 more washes, the cells were resuspended in a final volume of 150 μL of flow buffer. The cells were analyzed on a BD FACSCelesta or a Guava easyCyte 8-HT flow cytometer. At least 3000 events were collected, and PE geometric mean fluorescence intensity was plotted as a fold over background (cells incubated with secondary detection antibody only). In some secondary screens involving human or cynomolgus PBMCs, an additional CD4 antibody (BioLegend) and/or CD8 antibody (BioLegend) was included to further characterize cell binding.
Take B1: the concentration giving a half-maximal response (EC50 (read off the curve)) was approximately 10 nM.
Turning to B2, the 50% effective concentration (EC50 (read off the curve)) is approximately 5 nM.
As for B3, the “EC50 (read off the curve)” value is approximately 5 nM.

A further experiment deals with T2, IL-9R (R&D Systems). As to the kind of experiment: Octet (BLI) off-rate, antibody captured on AHC sensors. On the procedure:
All off-rate measurements were performed on an Octet Qk384 instrument (ForteBio), in 96-well microplates at 25° C. using anti-human IgG Fc capture (AHC, 18-5005) sensors with a shake speed of 1000 rpm. For off-rate determination, the antibodies/antibody fragments were loaded on the AHC sensors at 5 μg/mL. Following a short baseline in kinetics buffer (0.02% Tween20, 0.1% BSA, 0.05% sodium azide, 1X PBS). Offrate measurements were done for the following: human IL-2Rβ (AcroBiosystems), human IL-2Ry (Sino Biological), cynomolgus IL-2RP (Sino Biological), cynomolgus IL-2Rγ (expressed and purified in house using ExpiCHO expression system followed by Ni-NTA His-tag purification), mouse IL-2Rγ (Sino Biological), mouse IL-2Rβ (Sino Biological), human IL-2Rα (Sino Biological), IL-4R (Sino Biological), IL-7R (Sino Biological), IL-9R (R&D Systems) and IL-21R (Sino Biological). The following antibodies were used as positive controls to verify target binding and reagent quality: anti-human IL-9R (R&D Systems), anti-human IL-21R (R&D Systems), anti-human IL-7R (R&D Systems) and anti-human IL-4Ra (R&D Systems). The loaded sensors were then submerged in wells containing antigen at 100 nM concentration for association step. Dissociation was monitored in kinetics buffer. The capture surfaces were regenerated for 60 s. ForteBio data analysis software was used to fit the data to a 1:1 binding model to extract an association rate and dissociation rate.
With B1, the binding result is on record as “no binding (tested: antigen at 100 nM)”.
Still for that read-out and setting: as for B2, the entry is “no binding (tested: antigen at 100 nM)”; as for B4, “no binding (tested: antigen at 100 nM)”; as for B5, “no binding (tested: antigen at 100 nM)”.
Still for that read-out and setting: for B3 the value was “no binding (tested: antigen at 100 nM)”; for B6, “no binding (tested: antigen at 100 nM)”.
